This is an account of results in patent publication US20250296979A1.

The target in the experiment is VEGF-C and VEGF-D. The experiment in a line: ELISA; after storage at -20 C or 5 C for up to 24 months.

Take OPT-302 (Fc fusion): the decrease of binding activity against initiation of the stability study was 9 to 19%.
